Source: paper PMC7398576

What was measured:
[1] = target: p53 wild type (UniProt P04637 1-393); experiment: pull-down
[2] = target: FLAG-p53 (UniProt P04637 1-393); experiment: pull-down
FLAG-p53, sequence (P04637 whole entry): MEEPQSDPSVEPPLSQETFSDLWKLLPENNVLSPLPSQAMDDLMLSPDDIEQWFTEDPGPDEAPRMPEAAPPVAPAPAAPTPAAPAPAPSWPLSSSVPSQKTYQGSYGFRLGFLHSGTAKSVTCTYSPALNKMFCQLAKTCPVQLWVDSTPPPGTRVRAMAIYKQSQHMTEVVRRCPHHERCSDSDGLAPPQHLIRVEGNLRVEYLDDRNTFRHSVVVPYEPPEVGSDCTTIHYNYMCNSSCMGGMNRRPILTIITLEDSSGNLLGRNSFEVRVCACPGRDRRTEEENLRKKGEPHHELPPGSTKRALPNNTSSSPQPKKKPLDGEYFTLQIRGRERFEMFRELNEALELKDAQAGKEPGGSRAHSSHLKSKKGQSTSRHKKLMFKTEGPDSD

p53 wild type, sequence (P04637 whole entry): as above

B1: biotinylated p53-site oligonucleotide (dsDNA)
DNA 1: TCGAGAGGCATGTCTAGGCATGTCTC
DNA 2: GAGACATGCCTAGACATGCCTCTCGA
binding result [1]: binds
binding result [2]: binds
